Measured values reported in the nanobody polyreactivity screen of Harvey et al. (2022).

Experiment: yeast display, Sf9 membrane polyspecificity reagent, FACS + sequencing; frameworks hold sequencing errors
Outline: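 Genes from sorted yeast were amplified by colony PCR, read by MiSeq 2 × 250 sequencing and filtered on CDR length. These cells carried a synthetic nanobody library in Saccharomyces cerevisiae BJ5465 and were sorted by FACS into low and high (top ~1%) gates on anti-HA and streptavidin fluorescence. Polyreactivity is labelled according to the gate of origin.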

| Sequence | polyreactivity (PSR sort gate) |
| --- | --- |
| QVQLVESGGGLVQAGGSLRLSCAASGRIFTRNAMGWYRQAPGKEREFVAAISWSGGSTYYADSVKGRFTISRDNAKNTVDLQMNSLKPEDTAVYYCSAKNSGGYVSWYDYWGQGTQVTVSS | low polyreactivity |
| QVQLVESGGGLVQAGGSLRLSCAASGRIFTRYAMGWYREAPGKERELVAAIRIGDSTNYADSVKGRFTISRDNAKNTVYLQMNSLKPEDTAVYDCAAYLPRRRYYYWGQGTQVTVSS | high polyreactivity |
| QVQLVESGGGLVQAGGSLRLSCAASGRIFTRYAMGWYRQAPGKERELVAVITRSGGSTYYADSVKGRFTISRDNAKNNVDLQMNSLKPEDTAVYYCAAKYYGEMYYWGQGTQVTVSS | low polyreactivity |
| QVQLVESGGGLVQAGGSLRLSCAASGRIFTSNAMGWYRLAPGKERELVAAISSSSGSTYYADSVKGRFTISRDNAKNTVYLQMNSLKPEDTAVYYCAARTWRVSGTYKYDYWGQGTQVTVSS | low polyreactivity |
| QVQLVESGGGLVQAGGSLRLSCAASGRIFTSYVMGWYRQAPGKERELVAAITWGGSTKYADSVKGRFTISRVNAKNTVYLQMNSLKPEDTAVYYCAADGGEYYKGFFAVPYGYWGQGTQVTVSS | low polyreactivity |
| QVQLVESGGGLVQAGGSLRLSCAASGRIFTTYAMGWYRQAPGKEMELVAAIDYSDGSTYYADSVKGRFTISRDNAKNTVYLQMNSLNPEDTAVYYCAADGTYVWGSEEGNYWGQGTQVTVSS | low polyreactivity |
| QVQLVESGGGLVQAGGSLRLSCAASGRIFTVNAMGWYRQAPGKERELVASITGRGTRTYYADSVKGRFTISRDNAKNTVYLQMNSLKPEDTAVYYCAAAVARVKYDSKGYYWGQGTQVTVSS | high polyreactivity |
| QVQLVESGGGLVQAGGSLRLSCAASGRIFTVYALGWSRQAPGKERELVAAISRGRSTYADSVKGRFTISRDNAKNTVYLQLNSLKPEDTGVYYCAAVNFRKGEDYWGQGTQVTVSS | high polyreactivity |
| QVQLVESGGGLVQAGGSLRLSCAASGRIFTVYGMGWYRQAPGKERELVAAISWSGGGTYYADSVKGRFTISRDNAKNTVYLHMNSLKPEDTAVYYCNADRQYTWSLVFFSSDYDYWGQGTQVTVSS | low polyreactivity |
| QVQLVESGGGLVQAGGSLRLSCAASGRIFTWNARGWYRQAPGKERELVARISSGTRTNYADSVKGRFTISRDNAKNTVYLQMYSLKPEDTAVYYCAAAAKRTDAYHNRRYYWGQGTQVTVSS | high polyreactivity |
| QVQLVESGGGLVQAGGSLRLSCAASGRIFTWYAMGWYRQAPGKERELVAVISSGGSTYYADSVKGRFTISRDNAKNTVYLQMNSLKPEDTAVYYCAARRSYYGRSYYYWGQGTQVTVSS | high polyreactivity |
| QVQLVESGGGLVQAGGSLRLSCAASGRIFTYNAMGWYIQAPGKERELVAAISSSVGSTYYADSVKGRFTISRDNAKNTVYLQMNSLKPEDTAVYYCAAYSYRNLRFYYWGQGTQVTVSS | high polyreactivity |
| QVQLVESGGGLVQAGGSLRLSCAASGRIFTYNARGWYRQAPGKERELVAAITYRGSSTYYADSVKGRFTISRDIAKNTVYLQMNSLKAEDTAVYYCAAVFSGFYYAYDYWGQGTQVTVSS | high polyreactivity |
| QVQLVESGGGLVQAGGSLRLSCAASGRIFTYNTMGWYRQATGKEREFVASITYSGSSTYYADSVKGRFTISRDNAKNTVYLQMNSLKPEDTAVYYCATRYGYSDGDYWGQRTQVTVSS | low polyreactivity |
| QVQLVESGGGLVQAGGSLRLSCAASGRIFTYYAMGWYRQAPGKERELVAAINGRGGRTYYADSVKGRFTISRDNAKNTVYLQMNSLKPEDTAVYYCAARGYAPDTYGYWGQGTQVTVSS | high polyreactivity |
| QVQLVESGGGLVQAGGSLRLSCAASGRIFTYYGMGWYRQARGKERELVAAISSSGDSTFYADSVKGRFTISRDNGKNTVYLQMNSLKPEDTAVYYCAADYYYVWYDYWGQGTQVTVSS | low polyreactivity |
| QVQLVESGGGLVQAGGSLRLSCAASGRIFTYYTMGWYRRAPGKEREFVAAISWSGTSTYYADSVKGRFTISRDNAKNTVYLQMNSLKPEETAVFNCAARNWYSRYDYWGQGTQVTVSS | high polyreactivity |
| QVQLVESGGGLVQAGGSLRLSCAASGRIFVASAMGWYRQAPGKERELVAAISKTGGSTYYADSVKGRFTISRDNAKKTVYLQMNSLKPEDTAVYYCAADVYRRFDYWGQGTQVTVSS | low polyreactivity |
| QVQLVESGGGLVQAGGSLRLSCAASGRIFVAYTRGWYRQAPGKERELVAAITWNSGSSTYYADSVKGRFTISGDNAKNTVYLQMNSLKPEDTAVYYCAARSAGRYWNYYWGQGTQVTVSS | high polyreactivity |
| QVQLVESGGGLVQAGGSLRLSCAASGRIFVCYAMGLYRQAPGKERELVAAISSSCGSTYYADSVKGRFTISRDKAKNTVYLQMNSLKPEDTAVYYCNTHQRSRMDYWVQGTQVTVSS | low polyreactivity |
| QVQLVESGGGLVQAGGSLRLSCAASGRIFVCYAMGWYRQAPVKERELLAAITCRGGSTYYADSVKGRFTISRDNAKNTVYLQMNSLKPEDTEVYYCAAVGHSGGRRYDYWGQGTQVTVSS | high polyreactivity |
| QVQLVESGGGLVQAGGSLRLSCAASGRIFVDYAMGWYRQAPGKERELVAAIRSSGGSTYYADSVKGRFTISRDNAKNTVYLQMNSLKPEDTAVYYCNTPKYLRASSGYNYWGQGTQVTVSS | high polyreactivity |

| Sequence | polyreactivity (PSR sort gate) |
| --- | --- |
| QVQLVESGGGLVQAGGSLRLSCAASGRIFVDYDMGWYRQAPGKERELVAAISFDGGNTYADSVKGRFTISRDNAKNTVYLQMNSLKPEDTAVYYCARDDTSPGYGDQSSNAAYYYWGQGTQVTVSS | low polyreactivity |
| QVQLVESGGGLVQAGGSLRLSCAASGRIFVFYAMGWYRQAPGKERELVAAISKSVGPTYYADSVKGRFTISRDNAKNTVYLQMNSLKPEDTAVYYCASDVDRFFTYKYDYWGQGTQVTVSS | low polyreactivity |
| QVQLVESGGGLVQAGGSLRLSCAASGRIFVGNALGWYRKAPGKERELVAAISGSGDSTYYADSVKGRFTISRDNAKNTVYLQMNSLKPEDTAVYYCNVDYDFVIYYYWYYPGYDYWGQGTQVTVSS | low polyreactivity |
| QVQLVESGGGLVQAGGSLRLSCAASGRIFVGYAMGWYRQAPGKERELVAGIRYSGGSTYYADSVKGRFTISRDNAKNTVYLQMNSLKPEDTAVYYCANQVWHYAGRPNYKYDYWGQGTQVTVSS | low polyreactivity |
| QVQLVESGGGLVQAGGSLRLSCAASGRIFVGYTMGWYRQAPGKERELVAAISSRGGRTNYADSVKGRFTISRDNAKNTVYLQMNSLKPEDTAVYYCATRLYPHQYYYWGQGSQVTVSS | high polyreactivity |
| QVQLVESGGGLVQAGGSLRLSCAASGRIFVGYTMGWYRQAPGKERELVASISWSGASTYYADSVKGRFTISRDNAKNTVYLQMNSLKPEDTAVYYCAARYYKYYNSYDYWGQGTQVTVSS | high polyreactivity |
| QVQLVESGGGLVQAGGSLRLSCAASGRIFVINAMGWYRQAPGKERELVAAIRSGGSTNYADSVKGRFTISRDNAKNTVYLQMNSLKPEDTAVNYCAARNSGRRSKAYDFKMNYWGQGTQVTVSS | high polyreactivity |
| QVQLVESGGGLVQAGGSLRLSCAASGRIFVINDMGWYRKATGKERELVAAITWGSSTYADSVKGRFTISRDNAKNTVYLQMNSLKPEDTAVYYCARDVYPSTWEYDYWGQGTQVTVSS | low polyreactivity |
| QVQLVESGGGLVQAGGSLRLSCAASGRIFVINTMGWYRQAPGKERELVAAISRGGSTNYADSVKGRFTISRDNAKNTVYLQMNSLKPEDTAVYYCAATGYILFAGGGYDYWGQGTQVTVSS | low polyreactivity |
| QVQLVESGGGLVQAGGSLRLSCAASGRIFVKNAMGWYRQAPGKERELVAAISSGSSTNYADSVKGRFTISRDNAKNTVYLQMNSLKPEDTAVYYCAARQAQWDDYWGQGTQVTVSS | high polyreactivity |
| QVQLVESGGGLVQAGGSLRLSCAASGRIFVKSAMGWYRPAPGQERELVAAITSDGSTSYADSVKGRFTISRDNAKNTVYLQMNSQKPEDTAVYYCAKDFFEHSPVSHTYSSSKYDYWGQGTQVTVSS | low polyreactivity |
| QVQLVESGGGLVQAGGSLRLSCAASGRIFVKYAMGWYRQAPGKERELVAAITKSGSSTYYADSVKGRFTISRDNAKNTVYLQMNSLKPEDTAVYYCAALTISRSRTGYYWGQGTQVTVSS | low polyreactivity |
| QVQLVESGGGLVQAGGSLRLSCAASGRIFVLYAMGWYRQAPGKERELVAAISTSGGSTYYADSVKGRFTISRDNAKNTVYLQMNSLKPEDTAVYYCAADRSARFLFIQYYPYGMDYWGQGTQVTVSS | high polyreactivity |
| QVQLVESGGGLVQAGGSLRLSCAASGRIFVLYAMGWYRQAPGKERELVADITVSGGSTYYADSVKGRFTISRDNAKNTVYLQMNSLKPEDTAVYYCAADQRYWKFDSWGQGTQVTVSS | high polyreactivity |
| QVQLVESGGGLVQAGGSLRLSCAASGRIFVPNAMGWYRQAPGKERELVARISRSDGSTYYADSVKGRFTISRDNAKNTVYLQMNSLKPEDTAVYYCAASTTPRWWSFKYYYWGQGTEVTVSS | high polyreactivity |
| QVQLVESGGGLVQAGGSLRLSCAASGRIFVPYAMGWSRQAPGKERELVAAISWRGGSTNYADSVKGRFTISRDNAKNTVYLQMNSLKPEDTAVYYCAAVPVRYRYSYGYYYWGQGTQVTVSS | high polyreactivity |
| QVQLVESGGGLVQAGGSLRLSCAASGRIFVPYAMGWYRQAPGKERELVAAITWRGGSTYYADSVKGRFTISRDNAKNTVYLQMNSLKPEDTAVYYCNADEASPWFWFSHLQVGMDYWGQGTQVTVSS | low polyreactivity |
| QVQLVESGGGLVQAGGSLRLSCAASGRIFVPYTMGWYRQAPGKERELVAAISRSGGSTYYADSVKGRFTISRDNAKNTVYLQMNSLKPEDTAVYYCAARATNVYSKMDYWGQGTQVTVSS | high polyreactivity |
| QVQLVESGGGLVQAGGSLRLSCAASGRIFVPYTMGWYRQAPGKEWELVAAISRSGGSTYYADSVKGRFTISRDNAKNTVYLQMNSLKPEDTAVYYCAARATNVYSKMDSWGQGTQVTVSS | high polyreactivity |
| QVQLVESGGGLVQAGGSLRLSCAASGRIFVRNAMGWYRQAPGKERELVAAITRTGASTYYADSVKGRFTISRDNAKNTVYLQMNSLKPEDTAVYYCAAVWGWPYWVYRYDYWGQGTQVTVSS | high polyreactivity |
| QVQLVESGGGLVQAGGSLRLSCAASGRIFVRNAMGWYRQAPGKERELVAAITSGAGSTNYADSVKGRFTISRDNAKNTVYLQMNSLKPEDTAVYYCAADYETGAVSILDDYWGQGTQVTVSS | low polyreactivity |
